These are literature values, as cited in article PMC7723891.

pKd: −log10 of the molar value.

This series has as its target Spike RBD (SARS-CoV-2) (UniProt P0DTC2). Description: Biacore. For orientation: Surface plasmon resonance follows binding to a sensor surface in real time, without labels.

For orientation: pKd means −log10 of the Kd, conventionally taken in molar units. Regarding CD147 (from UniProt P35613), the negative-log Kd (pKd) is 6.73.
